# Results reported in the domain aggregation screens of Martell et al. (2025).
# Assay: soluble fraction after stress (log2 fold change); higher = more stays soluble; pooled small domains, quantitative proteomics
# Details: stress: pH 4
# Summary of the method: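 After pH 4 stress, pooled custom libraries of small protein domains were quantified with high-throughput quantitative proteomics. Aggregation propensity is taken from the fold change in each domain's soluble amount following the acid stress. The scale is log2, where higher values mean more stayed soluble.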
row,Sequence,soluble fraction (log2)
1,HMEKIDEDIMDVLKKKAEVSGISLGVLKSIYEKAVKQYKLGHEIGQVKEQYAMQKVNTHLLENK,0.169
2,HMEKIDYLSIGHRLRAYRIASSLKAEDVAESLGISRAAVYRLEKGEIVKIETLDNLARLLNTSLSSLLG,-1.3
3,HMEKIKNLTVTEFNLIANKNPSGSYDRITREALLHIIHKLESSYEAHTDLERKLFYKFRKAKFNAL,-0.715
4,HMEKIYLISDAAKQVNVEAHVLRYWEEELDIPAKRNELGHRYYTQEDIETFRKVKELKAQGIQLKGIKNIL,-1.07
5,HMEKLLTTRQSQIFELAKRKGYWNIPREISITQLAQLTGSSKSTISVMLHAIESKIVDTFYDEI,-0.216
6,HMEKLNERLLYLRKNANLTQQQLADKLHISNKTISQWETGRTLPDIVMLVRLAEIYDMKLDELLNQ,0.074
7,HMEKMLENIDLKAAVEALPEREKKVILLRYYRGMTQDAAAKVMKVSQVQISRIEKRAIEILREKL,-0.226
8,HMEKNKERIAFLKKRLEMYYEAEEKILQGQSYTIGSRTLTRTSLANVQSKIKELESEISALETRGN,-0.653
9,HMEKRIIMLEELKKQVYEANMELPRRGLITYTWGNVSGIDRESGNFVIKPSGVDYDKLKPEDMVVMDL,0.0555
10,HMEKRRQEIVELVKRESEISFAELKQHFPEVSEVTLRKDLKYLDSTLQIIRIHGGAKSLPAAI,-0.582
11,HMEKTTTLFDETTNPGIIYIGKAMPTGSAISEAAAVWAIKTIDTTTDTEIKWADGVTTYTKVWNNRASYSY,-1.35
12,HMEKVDAISQSILDVLKKNNGYLAVTDKSDPDEIYGLFQISKKTFKKAIGSLYRDRLISIEEEGIRLR,-0.237
13,HMEKVTAPMPGVINSIVKNVGDTVKRGDVVLILEAMKMENEIVAPKEGKIASINVAKGASVNAGDVLFSI,0.197
14,HMEKVTPEMIAEYNALAKKYNSNPEVVFKKKEIQRLKYIYSLMSEKQKETAEVFPNIPPPPPT,-0.599
15,HMEKYNIIVDNEDNFRLDKIIALNMKDLSRTMIQEMINRGLVSVNGKITKASYKTKLNDQIEIMIED,-0.171
16,HMELAALKILNSPIGKIAIGTSENGLVKLDILTSGQTRAEFSDLPKAHKLALDAADQLAAYF,0.113
17,HMELADNFAKLILTARESKGWTQAQLGQRMAETINVIKSAESGKPPADSVIRKFEMILGIELM,-0.121
18,HMELDFLRLQIITGIHSGRLSNNEILMMYDTYSQKGGNSYVSRIVNDYVDENNIKEEGKRNARK,-0.636
19,HMELDREALSDGLRRLSQLLAEDDIESRTLFRELAPGLKEQLGDDAVEKLAGHISRYEFEQAGALLATSG,-0.61
20,HMELIELTVTEEFEMARLDQFLAGHLTQSRTYIQKLIKAGQITINGNLITRVKVPVHYGDFILINIPDPE,-1.6
21,HMELKFIGEAVNNPKRPLIAILGGAKVSDKIGVIENLLTKADKILIGGAMMFTFLKAEGKNIGTSLVED,-0.0167
22,HMELLEVSVIIREADSTGWSAARQGMEQAAADLGAELRFLTLSQSNSAEEQRSLLAREVEGGADAVVLV,≥ 0.43
23,HMELNEMEAWSLVSKALRNGTYGAVEEFSRLPPTVQEAVGNPDNLRNWATSDYKAIETVIQSNFIKTY,-0.429
24,HMELNILELKSKERKISLEDHLYIKSFNFDNETNEYFYRLAFNSSKDLKNFKATINNDKTISIINFEI,-2.14
25,HMELPVNSIRVPDVVGLSLREAMQAMTDAGVPWQSVQAKGVGFVSRQSPEAGTVTQLRRVRLELKLF,-0.00108
26,HMELSPVDLGERLKIARETANFTQDAAAKAVGIARTTLVSIEKGQRTARLDEIQALSRFYGVSANALLR,0.0374
27,HMELTDRQKQIIEIVKKQQPISGEKIASILGFARATLRPDFSLLTMSGILQAKPKVGYLINEE,0.158
28,HMELVEVGDLTGLTVEQAENVLKNSNISISIDKYDESDKYEKDQIISQNPQNKKVKKGTAIHVVLSNGP,-0.181

row,Sequence,soluble fraction (log2)
1,HMEMKMGHIISKLRYESGYSQVELAEKIGITKGAVGMYETDKRKPDYDTLIKLADLFNVSTDYLLS,-1.31
2,HMEMNDFETLRDMYLTGKIWNVGDIVEANGVRGKVIRKGTNYLSFVDEDNKVHKAWLYDIEE,-0.429
3,HMEMSLGEKLKQARLTKNFSQEYMAEVLQISQKTYSNFENNKTKPDFSQIEEISKVLETSILEFLT,-0.0931
4,HMEMTGAHLRKKIRAKGFTFQQIADAIGESKQNLSQILSTNNIKTGTLERIAAAMGESVSYF,0.167
5,HMENDYTQAQFVQDLDSGVVREVIIIPNREAPTGYARVVFGDVVRELYATDIREVEALAREHGYEPTVED,-0.499
6,HMENFDNIFDQRLMPSLFIIRNINQAIENNNNNKFLLNSTISMKDKHWIEIHPHHLKLIISGYQT,-0.54
7,HMENIEVDFGVGDTVSVIGGAWKDTVGVVQAMNPNKQSLTINVELFGRETPVEISFTDVQKM,-0.962
8,HMENINIRNMGIRAVEAAIISLSPDQRTFTWGATNKKLVTVPYEENPYSALAAFFKTDDGIEIYDAIEKRL,-0.881
9,HMENNNIAFSKFLEEVDSGRVVQVEIQGNNISGTLSDGSKFKTYSPNYPDLVSKLSEKNVSIIASPV,0.166
10,HMENPLVEVVVPVLNEERILKANIETLHHFLRTQPGFNFRITIADNGSTDKTQAIANDLTNSHAVIRV,-0.441
11,HMENPMIEQLKQFIEAQGLTQGQLAAKLGVSTATVNQYLQGKYKGDTAALDAKAAQLMARSREK,0.175
12,HMENRILIPTAENIGERLDRYISSELDAPRSQVQIWIDSGLVAVSGGLKPKNYRLREGDEIEVTIPDPV,-0.0637
13,HMENRLREVRDEIATRHGILPTVFINDRVLMNIHSKKPKDVSQLWQVDGISDEFIMKYGPEFIAEYKKKAK,-0.59
14,HMENRREYQKAIDYLSDQIRAGTLTVGSRLPTERAIAEALGISRNSTREALRTMENMGMIESKQGSGHYLT,-0.0814
15,HMENTELIELRKKRNLSQSQLAELLDLTRNQIANYESGRRIPDQETKQIIAGFFEMPAEEIFAG,-0.0656
16,HMENTFNENLRRIRKEKKITQEQLAEFVGVSPQAVSKWEMNSFPDASLLPKIAEKLEVSIDELFGLK,-0.225
17,HMENTVVMPNLLGKTMTEAKIELKDLSISITLKGSENSSQYAAGQIISQSVDSGTRVAVGSSVEVTIAGS,-0.0377
18,HMENVIYGINGPVVTVRNSRSFSMMEMVFVGNERLVGEVIGITDKITTIQVYEETTGLRPGEPVYGTGSPM,-0.842
19,HMENVRKTEWVTISNDKSQTRTTVYFESGNQKLDKHPQIQGFEYQRTYVEGGVKYYLFVEKGTKLDE,0.0865
20,HMENYGEAITYIHGMIEDSSEKMLAASKALKVNANTLIKFMKDPYSVAAHIRDRIVENLANLEKAVKAI,-0.59
21,HMENYYMPVVAGQSEQDAKSMLNAMKLSLSIQVQEQESDSVAKGLAIGTSPAAGSQIRKGSSVILYISKGA,0.16
22,HMEPALYRLFMAHPELNASAVARRLGIAQSLLAQYISGSKKPSPERERMILTEIHKIGEELATAS,0.102
23,HMEPAPPPAAPPADPELQKRIDKLVEYIGKNGPEFEAVIRDKQHDNPDYAFVFGGEGHAYYRYLLWLLPRP,-0.287
24,HMEPELLTTKQVASVMNIGEERARAILLSRGVQPVSLPWGKERKTLRWSRRAVMTVIDTLHAEAQAKAGV,0.18
25,HMEPLPDIPRGTRVSHQTAPADGDMPERRETGWTMTEPIRAQDGLAYVGVSVYGRGVVMLPVNSLSII,-0.557
26,HMEPSAQEIANKLLGHVKSLGLPITGLSISYNSTSDLATVRGQVQSQADREKIILAVGNVDHVAKVDDQLT,-0.0387
27,HMEPSQEFSLADMVAYDLTGYPKSAALRAAVGASLGIGYGNAKQFVYRLNHYGISKDDFHRAAQEALDGL,0.057
